Measurements as given in patent US20200079854A1 (Johns Hopkins, published 2020).

Legend:
[1] = molecular target: KRAS wt(6-14) peptide … with HLA-A2 and b2M on peptide-pulsed T2 cells (human); experiment: flow cytometry, phage-displayed scFv on peptide-pulsed T2 cells (FIG. 5)
[2] = molecular target: T1, KRAS wt(7-16) peptide … with HLA-A3 and b2M on cells (human); experiment: flow cytometry, phage-displayed scFv on peptide-pulsed T2A3 cells (FIG. 6)
T1 construct: peptide-pulsed T2A3 cells in flow cytometry

B1: KRAS_G12V_A2_A5 (scFv)
scFv: DIQMTQSPSSLSASVGDRVTITCRASQDVNTAVAWYQQKPGKAPKLLIYSASFLYSGVPSRFSGSRSGTDFTLTISSLQPEDFATYYCQQWYSSPVTFGQGTKVEIKRTGGGSGGGGSGGGASEVQLVESGGGLVQPGGSLRLSCAASGFNIYWSHMHWVRQAPGKGLEWVAIISSFEGYTYYADSVKGRFTISADTSKNTAYLQMNSLRAEDTAVYYCSRSYSYYMDYWGQGTLVTVSS
Question: Does B1 bind [1]?
Answer: no binding

B2: KRAS_G12V_A2_C1 (scFv)
scFv: DIQMTQSPSSLSASVGDRVTITCRASQDVNTAVAWYQQKPGKAPKLLIYSASFLYSGVPSRFSGSRSGTDFTLTISSLQPEDFATYYCQQYYSRPVTFGQGTKVEIKRTGGGSGGGGSGGGASEVQLVESGGGLVQPGGSLRLSCAASGFNIYLHDMHWVRQAPGKGLEWVAQIIPAIDYTNYADSVKGRFTISADTSKNTAYLQMNSLRAEDTAVYYCSRRDGYYFDYWGQGTLVTVSS
Question: Does B2 bind [1]?
Answer: no binding

B3: KRAS_G12CV_A3_c15 (scFv)
scFv: DIQMTQSPSSLSASVGDRVTITCRASQDVNTAVAWYQQKPGKAPKLLIYSASFLYSGVPSRFSGSRSGTDFTLTISSLQPEDFATYYCQQSYGSGSPWTFGQGTKVEIKRTGGGSGGGGSGGGASEVQLVESGGGLVQPGGSLRLSCAASGFNIVGGGIHWVRQAPGKGLEWVAKIYPQGDYTYYADSVKGRFTISADTSKNTAYLQMNSLRAEDTAVYYCSRDSSYLAFDYWGQGTLVTVSS
Question: Does B3 bind [2]?
Answer: no binding

B4: KRAS_G12CDV_A3_c19 (scFv)
scFv: DIQMTQSPSSLSASVGDRVTITCRASQDVNTAVAWYQQKPGKAPKLLIYSASFLYSGVPSRFSGSRSGTDFTLTISSLQPEDFATYYCQQTYYSPWTFGQGTKVEIKRTGGGSGGGGSGGGASEVQLVESGGGLVQPGGSLRLSCAASGFNIRSYAMHWVRQAPGKGLEWVAQVGPGKGYTYYADSVKGRFTISADTSKNTAYLQMNSLRAEDTAVYYCSRNFQSTSHAFDYWGQGTLVTVSS
Question: Does B4 bind [2]?
Answer: no binding

B5: KRAS_G12CDV_A3_c118 (scFv)
scFv: DIQMTQSPSSLSASVGDRVTITCRASQDVNTAVAWYQQKPGKAPKLLIYSASFLYSGVPSRFSGSRSGTDFTLTISSLQPEDFATYYCQQYYYPPITFGQGTKVEIKRTGGGSGGGGSGGGASEVQLVESGGGLVQPGGSLRLSCAASGFNVSHTGMHWVRQAPGKGLEWVAVVGPGKGYTYYADSVKGRFTISADTSKNTAYLQMNSLRAEDTAVYYCSRKTYYAFDYWGQGTLVTVSS
Question: Does B5 bind [2]?
Answer: no binding
